# Experimental data as given in patent US20240197902A1 (published 2024).
# Where two headings read alike, the source gives them in different places.
# Columns and labels:
# [1] = target: ActRIIB L38N/L79R; experiment: SPR; 37 C
# [2] = target: ActRIIB F82T; experiment: SPR; 37 C
# [3] = target: ActRIIB E50L; experiment: SPR; 37 C
# [4] = target: ActRIIB-G1Fc; experiment: SPR; 37 C
# [5] = target: L79W; experiment: SPR; 25 C
# [6] = target: L38Q; experiment: SPR; 25 C
# [7] = target: N35E; experiment: SPR; 25 C
# [8] = target: Q98L; experiment: SPR; 25 C
# [9] = target: Q98I; experiment: SPR; 25 C
# [10] = target: N35Q; experiment: SPR; 25 C
# [11] = target: Q98K; experiment: SPR; 25 C
# [12] = target: Q98R; experiment: SPR; 25 C
# [13] = target: N35F; experiment: SPR; 25 C
# [14] = target: L38R; experiment: SPR; 25 C
# [15] = target: Q98V; experiment: SPR; 25 C
# [16] = target: ActRIIB-G1Fc; experiment: SPR; 25 C
# [17] = target: Q98A; experiment: SPR; 25 C
# [18] = target: L38D; experiment: SPR; 25 C
# [19] = target: K55A; experiment: SPR; 37 C
# [20] = target: L79K; experiment: SPR; 37 C
# [21] = target: K55A/F82I; experiment: SPR; 37 C
# [22] = target: F82K; experiment: SPR; 37 C
# [23] = target: F82I; experiment: SPR; 37 C
# [24] = target: K74A; experiment: SPR; 37 C
# [25] = target: L79K/F82K; experiment: SPR; 37 C
# [26] = target: K55E; experiment: SPR; 37 C
# [27] = target: ActRIIB-G1Fc; experiment: SPR; 37 C; remark: listed apart in the source
# [28] = target: ActRIIB L38N/L79R; experiment: SPR; 37 C; remark: listed apart in the source
# [29] = target: ActRIIB F82T; experiment: SPR; 37 C; remark: listed apart in the source
# [30] = target: ActRIIB E50L; experiment: SPR; 37 C; remark: listed apart in the source
# [31] = target: ActRIIB-G1Fc; experiment: SPR; 37 C; remark: listed apart in the source
# [32] = target: ActRIIB V99G; experiment: SPR; 37 C
# [33] = target: F82T; experiment: SPR; 25 C
# [34] = target: ActRIIB V99G; experiment: SPR; 37 C; remark: listed apart in the source
# [35] = target: ActRIIB F82T; experiment: SPR; 37 C; transient
binder,measurement,setting,value
Activin A (ligand) GLECDGKVNICCKKQFFVSFKDIGWNDWIIAPSGYHANYCEGECPSHIAGTSGSSLSFHSTVINHYRMRGHSPFANLKSCCVPTKLRPMSMLYYDDGQNIIKKDIQNMIVEECGCS,Kd,[1],0.339 nM
same,Kd,[2],0.0109 nM
same,Kd,[3],0.0456 nM
same,Kd,[4],0.0146 nM
same,Kd,[5],0.26 nM
same,Kd,[6],0.2 nM
same,Kd,[7],0.8 nM
same,Kd,[8],0.22 nM
same,Kd,[9],0.157 nM
same,Kd,[10],0.32 nM
same,Kd,[11],0.145 nM
same,Kd,[12],0.3 nM
same,Kd,[13],0.29 nM
same,Kd,[14],0.23 nM
same,Kd,[15],0.16 nM
same,Kd,[16],0.25 nM
same,Kd,[17],0.155 nM
same,Kd,[18],0.23 nM
same,Kd,[19],0.046 nM
same,Kd,[20],0.13 nM
same,Kd,[21],0.047 nM
same,Kd,[22],0.093 nM
same,Kd,[23],0.078 nM
same,Kd,[24],0.034 nM
same,Kd,[25],0.64 nM
same,Kd,[26],0.064 nM
same,Kd,[27],0.047 nM
BMP10 (ligand) NAKGNYCKRTPLYIDFKEIGWDSWIIAPPGYEAYECRGVCNYPLAEHLTPTKHAIIQALVHLKNSQKASKACCVPTKLEPISILYLDKGVVTYKFKYEGMAVSECGCR,Kd,[28],0.293 nM
same,Kd,[29],0.0092 nM
same,Kd,[30],0.163 nM
same,Kd,[31],0.0409 nM
same,Kd,[32],0.951 nM
same,Kd,[5],0.16 nM
same,Kd,[6],0.089 nM
same,Kd,[7],0.28 nM
same,Kd,[33],0.14 nM
same,Kd,[8],0.065 nM
same,Kd,[9],0.21 nM
same,Kd,[10],0.27 nM
same,Kd,[11],0.068 nM
same,Kd,[12],0.32 nM
same,Kd,[13],0.22 nM
same,Kd,[14],0.11 nM
same,Kd,[15],0.048 nM
same,Kd,[16],0.169 nM
same,Kd,[17],0.21 nM
same,Kd,[18],0.15 nM
same,Kd,[19],0.023 nM
same,Kd,[20],1.4 nM
same,Kd,[21],0.007 nM
same,Kd,[22],0.008 nM
same,Kd,[23],0.008 nM
same,Kd,[24],0.033 nM
same,Kd,[25],0.068 nM
same,Kd,[26],0.014 nM
Activin B (ligand) GLECDGRTNLCCRQQFFIDFRLIGWNDWIIAPTGYYGNYCEGSCPAYLAGVPGSASSFHTAVVNQYRMRGLNPGTVNSCCIPTKLSTMSMLYFDDEYNIVKRDVPNMIVEECGCA,Kd,[1],0.0369 nM
same,Kd,[2],0.012 nM
same,Kd,[3],0.159 nM
same,Kd,[4],0.0085 nM
same,Kd,[34],0.847 nM
GDF11 (ligand) NLGLDCDEHSSESRCCRYPLTVDFEAFGWDWIIAPKRYKANYCSGQCEYMFMQKYPHTHLVQQANPRGSAGPCCTPTKMSPINMLYFNDKQQIIYGKIPGMVVDRCGCS,Kd,[28],0.0886 nM
same,Kd,[29],0.0267 nM
same,Kd,[30],0.187 nM
same,Kd,[31],0.01 nM
same,Kd,[32],0.184 nM
same,Kd,[5],0.044 nM
same,Kd,[6],0.021 nM
same,Kd,[7],0.028 nM
same,Kd,[33],0.018 nM
same,Kd,[8],0.043 nM
same,Kd,[9],0.049 nM
same,Kd,[10],0.02 nM
same,Kd,[11],0.037 nM
same,Kd,[12],0.02 nM
same,Kd,[13],0.017 nM
same,Kd,[14],0.007 nM
same,Kd,[15],0.033 nM
same,Kd,[16],0.011 nM
same,Kd,[17],0.037 nM
same,Kd,[18],0.03 nM
same,Kd,[19],0.026 nM
same,Kd,[20],0.14 nM
same,Kd,[21],0.09 nM
same,Kd,[22],0.057 nM
same,Kd,[23],0.01 nM
same,Kd,[24],0.43 nM
same,Kd,[25],1.6 nM
same,Kd,[26],0.052 nM
same,Kd,[27],0.012 nM
BMP9 (ligand) SAGAGSHCQKTSLRVNFEDIGWDSWIIAPKEYEAYECKGGCFFPLADDVTPTKHAIVQTLVHLKFPTKVGKACCVPTKLSPISVLYKDDMGVPTLKYHYEGMSVAECGCR,Kd,[28],2.13 nM
same,Kd,[30],0.103 nM
same,Kd,[31],0.0911 nM
same,Kd,[5],0.11 nM
same,Kd,[6],0.033 nM
same,Kd,[33],0.082 nM
same,Kd,[8],0.071 nM
same,Kd,[9],0.059 nM
same,Kd,[11],0.069 nM
same,Kd,[12],0.074 nM
same,Kd,[14],0.05 nM
same,Kd,[15],0.047 nM
same,Kd,[16],0.059 nM
same,Kd,[17],0.043 nM
same,Kd,[18],0.063 nM
same,Kd,[19],0.142 nM
same,Kd,[20],1.1 nM
same,Kd,[21],0.134 nM
same,Kd,[23],0.275 nM
same,Kd,[24],0.36 nM
same,Kd,[26],0.27 nM
same,Kd,[27],0.037 nM
same,Kd,[35],6.17 nM
